Values of other authors as cited in PMC8758526.

How the values were obtained:
TREM-1 (Mus musculus) = TREM-1 (Mus musculus) (UniProt Q9JKE2)
TLR4 (Mus musculus) = TLR4 (Mus musculus) (UniProt Q9QUK6)
UniProt Q9QUK6, sequence (Q9QUK6 26-835): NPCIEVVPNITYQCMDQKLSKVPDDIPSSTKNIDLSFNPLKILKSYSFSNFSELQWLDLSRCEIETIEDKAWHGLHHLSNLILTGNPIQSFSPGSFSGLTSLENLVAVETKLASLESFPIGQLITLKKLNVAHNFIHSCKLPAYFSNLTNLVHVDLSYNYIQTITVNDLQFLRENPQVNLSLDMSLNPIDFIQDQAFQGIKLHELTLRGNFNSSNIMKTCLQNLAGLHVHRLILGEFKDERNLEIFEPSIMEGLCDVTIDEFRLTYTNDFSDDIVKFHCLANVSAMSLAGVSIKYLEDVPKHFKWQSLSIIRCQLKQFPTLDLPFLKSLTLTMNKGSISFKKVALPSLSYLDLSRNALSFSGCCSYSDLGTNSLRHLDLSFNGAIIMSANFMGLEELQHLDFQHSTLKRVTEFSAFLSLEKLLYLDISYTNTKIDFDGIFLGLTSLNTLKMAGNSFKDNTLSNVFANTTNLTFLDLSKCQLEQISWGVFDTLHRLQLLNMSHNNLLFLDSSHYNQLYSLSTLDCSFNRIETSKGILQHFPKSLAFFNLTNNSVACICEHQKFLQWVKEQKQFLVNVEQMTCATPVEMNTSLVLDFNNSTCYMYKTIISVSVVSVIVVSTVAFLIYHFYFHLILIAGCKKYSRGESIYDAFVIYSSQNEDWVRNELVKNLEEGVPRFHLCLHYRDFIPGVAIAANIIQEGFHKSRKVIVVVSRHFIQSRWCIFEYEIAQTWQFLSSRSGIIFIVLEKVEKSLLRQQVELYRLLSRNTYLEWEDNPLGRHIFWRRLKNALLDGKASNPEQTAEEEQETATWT

UniProt Q9JKE2, sequence (Q9JKE2 21-230): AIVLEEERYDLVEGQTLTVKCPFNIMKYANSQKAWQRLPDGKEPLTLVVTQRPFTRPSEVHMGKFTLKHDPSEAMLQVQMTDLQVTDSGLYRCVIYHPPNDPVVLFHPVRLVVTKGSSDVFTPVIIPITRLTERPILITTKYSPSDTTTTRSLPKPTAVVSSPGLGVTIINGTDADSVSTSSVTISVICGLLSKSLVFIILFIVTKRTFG

Kd (TREM-1 (Mus musculus)): 0.117 µM
Kd (TLR4 (Mus musculus)): 0.617 µM
Substance: eCIRP (from UniProt P60824)
